Measured values reported in patent publication US20240182592A1 (CHIA TAI TIANQING PHARMACEUTICAL GROUP, published 2024).

Legend:
T cell surface CD3 = target: T1, T cell surface CD3 (human, UniProt P07766 23-207); test: flow cytometry, human CD3+ T cells
T1 construct: whole, on cells; also called CD3^+ T cells
Method: Human PBMC cells were sorted for CD3⁺ T cells using CD3 magnetic beads (Miltenyi, catalog No. 130-097-043): the cryopreserved PBMCs were thawed, and washed by centrifugation twice for counting. Running buffer (MACS, catalog No. 130-091-221) was added in a cell-to-buffer ratio of 10⁷:80 μL, CD3 beads were added in a cell-to-bead ratio of 10⁷:20 μL, and the mixture was mixed well and incubated at 4° C. for 15 min. The cells were washed with buffer in a cell-to-buffer ratio of 10⁷:1-2 mL. After centrifugation, the supernatant was discarded, and 500 μL of buffer was added to resuspend the cell pellet. The LS sorting column (Miltenyi, catalog No. 130-042-401) was placed on the MidiMACS Starting Kit (LS) magnetic rack (Miltenyi, catalog No. 130-091-051). After rinsing, the cell suspension was added and washed thrice. The LS sorting column was removed from the magnetic rack and placed on a clean centrifuge tube and 5 mL buffer was added to collect the sorted CD3⁺ T cells. After counting, the CD3⁺ T cells were adjusted to a cell density of 5×10⁶-10×10⁶ cells/mL using RPMI medium (Hyclone, catalog No. SH30809.01) containing 2% FBS (fetal bovine serum) and seeded in a 96-well U-bottom cell culture plate (Costar, catalog No. 3799) at 50 μL per well. The test antibodies at different concentrations were prepared using the medium described above. […] The antibodies at different concentrations were added to the 96-well cell culture plate described above at 50 μL per well, mixed well and incubated at 4° C. for 1 h. The cells were washed with pre-cooled running buffer (MACS, catalog No. 130-091-221), and the supernatant was discarded. Pre-cooled fluorescent labeled goat anti-human IgG antibodies (Jackson, catalog No. 109-116-170) were added, and the cells were resuspended at 100 μL per well, mixed well and incubated at 4° C. for 30 min. After washing, 100 μL of pre-cooled running buffer was added to resuspend the cells.

human BCMA on cells [1] = target: T2, human BCMA on cells (human, UniProt Q02223 1-184); test: flow cytometry, NCI-H929 cells
T2 construct: whole, on cells; also called CHO-hBCMA cells; U266 cells
T2 sequence (looked up): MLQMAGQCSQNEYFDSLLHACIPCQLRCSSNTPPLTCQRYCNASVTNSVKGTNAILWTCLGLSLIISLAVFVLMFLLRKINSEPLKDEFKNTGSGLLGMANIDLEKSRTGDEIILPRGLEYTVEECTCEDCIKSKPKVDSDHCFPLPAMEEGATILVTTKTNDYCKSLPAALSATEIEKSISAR
Method: (§1) NCI-H929 cells (BCMA+++), MM1S cells (BCMA++), and RPMI-8226 cells (BCMA+) in the logarithmic growth phase were taken, adjusted to a cell density of 5×10⁶-10×10⁶ cells/mL using RPMI medium (Hyclon, catalog No. SH30809.01) containing 2% FBS (fetal bovine serum), respectively, and seeded in a 96-well U-bottom cell culture plate (Costar, catalog No. 3799) at 50 μL per well. The test antibodies at different concentrations were prepared using the medium described above. […] The antibodies at different concentrations were added to the 96-well cell culture plate described above at 50 μL per well, mixed well and incubated at 4° C. for 1 h. The cells were washed with pre-cooled running buffer (MACS, catalog No. 130-091-221), and the supernatant was discarded. Pre-cooled fluorescent labeled goat anti-human IgG antibodies (Jackson, catalog No. 109-116-170) were added, and the cells were resuspended at 100 μL per well, mixed well and incubated at 4° C. for 30 min. After washing, 100 μL of pre-cooled running buffer was added to resuspend the cells. The cells were mixed well and collected while flowing on an Attune™ NxT flow cytometer, and the data was analyzed using Graphpad Prism5 software. FIGS. 7-9 and Table 11 show the binding ability of the anti-BCMA/anti-CD3 multispecific antibodies to NCI-H929 cells (BCMA+++), MM1S cells (BCMA++), and RPMI-8226 cells (BCMA+).

human BCMA on cells [2] = target: T2, human BCMA on cells; test: flow cytometry on RPMI-8226 cells, fluorescent goat anti-human IgG detection
Method: as §1

human BCMA protein = target: T3, human BCMA protein (human, UniProt Q02223 1-54, limits assumed); test: SPR (Biacore T200), antibody captured by anti-hIgG, human BCMA as analyte, 1:1 model
T3 construct: also called hBCMA; Antigen BCMA
T3 sequence (looked up): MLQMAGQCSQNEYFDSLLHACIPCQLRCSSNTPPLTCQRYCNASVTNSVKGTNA
Method: (§2) The affinity of the test antibody for human CD3e or human BCMA protein was determined by Biacore T200 (GE) as follows:
(§3) The response signals were detected in real time using Biacore software, and association and dissociation curves were obtained. The buffer used in the experiment was Biacore universal buffer (137 mM NaCl, 2.7 mM KCl, 10 mM Na₂HPO₄.12H₂O, 1.8 mM KH₂PO₄. 0.05% surfactant P-20 (w/v), pH 7.4). […] The flow rate in the flow cell was at 50 μL/min, the association was performed for 240 s, the dissociation was performed for 1400 s, the regeneration was performed using 3 M MgCl (GE) for 60 s, and the baseline was stable. Results were obtained by calculation according to the affinity and kinetics 1:1 binding mode in biacore evaluation software.

[3] = target: T4, human CD3e (Acro, Cat. No. CDE-H5223) (human, UniProt P07766 23-126); test: SPR (Biacore T200), antibody captured by anti-hIgG, human CD3e as analyte, 1:1 model
T4 construct: also called human CD3e protein; hCD3e
Method: as §2, §3

human BCMA on cells [4] = target: T2, human BCMA on cells; test: cell-based or functional assay
human BCMA on cells [5] = target: T2, human BCMA on cells; test: cell-based or functional assay; remark: listed apart in the source
human BCMA on cells [6] = target: T2, human BCMA on cells; test: cell-based or functional assay; remark: listed apart in the source
human BCMA on cells [7] = target: T2, human BCMA on cells; test: flow cytometry, MM1S cells
Method: as §1

T1 sequence (P07766 23-207): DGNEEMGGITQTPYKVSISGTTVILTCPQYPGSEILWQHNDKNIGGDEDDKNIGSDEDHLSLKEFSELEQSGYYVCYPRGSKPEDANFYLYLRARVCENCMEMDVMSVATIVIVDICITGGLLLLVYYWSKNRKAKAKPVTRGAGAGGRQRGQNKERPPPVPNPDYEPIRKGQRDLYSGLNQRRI
T4 sequence (P07766 23-126 limits assumed): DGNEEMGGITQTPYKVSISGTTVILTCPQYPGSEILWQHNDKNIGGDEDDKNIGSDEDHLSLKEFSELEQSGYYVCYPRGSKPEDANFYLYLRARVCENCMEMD

B1: anti-BCMA/anti-CD3 multispecific antibody PC2 (bispecific antibody, human IgG1)
chain 1: QVQLVESGGGLVQPGGSLRLSCAASGYSSNVACMAWYRQAPGKGLEWVATIVADFGTTNYAASVKGRFTISQDNSKNTVYLQMNSLRAEDTAVYYCAATQRGGIDWCDEINYWGQGTLVTVSSGEPKSSDKTHTCPPCPAPEAAGGPSVFLFPPKPKDTLMISRTPEVTCVVVDVSHEDPEVKFNWYVDGVEVHNAKTKPREEQYNSTYRVVSVLTVLHQDWLNGKEYKCKVSNKALAAPIEKTISKAKGQPREPQVCTLPPSREEMTKNQVSLSCAVKGFYPSDIAVEWESNGQPENNYKTTPPVLDSDGSFFLVSKLTVDKSRWQQGNVFSCSVMHEALHNHYTQKSLSLSPGK
chain 2: QVQLVESGGGLVQPGGSLRLSCAASGFTFNSACMGWFRQAPGKGREGVSRIETGYGGTVYADSVKGRFTISRDNSKNTVYLQMNSLRAEDTAVYYCAAKRSWCTPTWWHELDYNYWGQGTQVTVSSGGGGSELVVTQEPSLTTSPGGTVTLTCRSSTGAVTTSNYANWVQQKPGQAPRGLIGGTNKRAPGTPARFSGSLLGGKAALTITGVQPEDEAEYYCALWYSNLWVFGGGTKLTVLGGGGSGGGGSGGGGSEVQLVESGGGLVQPGGSLRLSCAASGFTFNTYAMNWVRQAPGKGLEWVARIRSKYNNYATYYADSVKDRFTISRDDSKNTAYLQMNNLKTEDTAMYYCVRHGNFGNSYVSWFAYWGQGTLVTVSSGEPKSSDKTHTCPPCPAPEAAGGPSVFLFPPKPKDTLMISRTPEVTCVVVDVSHEDPEVKFNWYVDGVEVHNAKTKPREEQYNSTYRVVSVLTVLHQDWLNGKEYKCKVSNKALAAPIEKTISKAKGQPREPQVYTLPPCREEMTKNQVSLWCLVKGFYPSDIAVEWESNGQPENNYKTTPPVLDSDGSFFLYSKLTVDKSRWQQGNVFSCSVMHEALHNRFTQKSLSLSPGK
notes: Trivalent; two chains; human IgG1 knobs-into-holes Fc
- EC50 (T cell surface CD3): ~462 nM
- Top(MFI) (T cell surface CD3): 37200 MFI
- EC50 (human BCMA on cells [1]): 1.03 nM
- Top(MFI) (human BCMA on cells [1]): 234000 MFI
- EC50 (read off the curve) (human BCMA on cells [2]): ~0.3 nM
- Kd (human BCMA protein): 0.0185 nM
- Kd [3]: 1.33 nM
- Lysis EC50, MM1S cells with human PBMCs (E:T 10:1, 24 h, LDH release) (human BCMA on cells [4]): 0.0605 nM
- Maximum lysis rate, MM1S cells with human PBMCs (human BCMA on cells [4]): 28%
- Lysis EC50, NCI-H929 cells with human PBMCs (E:T 10:1, 24 h, LDH release) (human BCMA on cells [5]): 0.527 nM
- Maximum lysis rate, NCI-H929 cells with human PBMCs (human BCMA on cells [5]): 38%
- Lysis EC50, RPMI-8226 cells with human PBMCs (E:T 10:1, 24 h, LDH release) (human BCMA on cells [6]): 0.0185 nM
- Maximum lysis rate, RPMI-8226 cells with human PBMCs (human BCMA on cells [6]): 39%
- EC50 (human BCMA on cells [7]): 0.311 nM
- Top(MFI) (human BCMA on cells [7]): 115000 MFI
